From patent publication US20220135686A1 (SUNSHINE GUOJIAN PHARMACEUTICAL SHANGHAI, published 2022)
“And” between values parts separate entries of the source, which are not always exact repeats. Equal entries are not always repeated.

B1: PDL1-Fab-609-IgG4 (bispecific antibody)
heavy: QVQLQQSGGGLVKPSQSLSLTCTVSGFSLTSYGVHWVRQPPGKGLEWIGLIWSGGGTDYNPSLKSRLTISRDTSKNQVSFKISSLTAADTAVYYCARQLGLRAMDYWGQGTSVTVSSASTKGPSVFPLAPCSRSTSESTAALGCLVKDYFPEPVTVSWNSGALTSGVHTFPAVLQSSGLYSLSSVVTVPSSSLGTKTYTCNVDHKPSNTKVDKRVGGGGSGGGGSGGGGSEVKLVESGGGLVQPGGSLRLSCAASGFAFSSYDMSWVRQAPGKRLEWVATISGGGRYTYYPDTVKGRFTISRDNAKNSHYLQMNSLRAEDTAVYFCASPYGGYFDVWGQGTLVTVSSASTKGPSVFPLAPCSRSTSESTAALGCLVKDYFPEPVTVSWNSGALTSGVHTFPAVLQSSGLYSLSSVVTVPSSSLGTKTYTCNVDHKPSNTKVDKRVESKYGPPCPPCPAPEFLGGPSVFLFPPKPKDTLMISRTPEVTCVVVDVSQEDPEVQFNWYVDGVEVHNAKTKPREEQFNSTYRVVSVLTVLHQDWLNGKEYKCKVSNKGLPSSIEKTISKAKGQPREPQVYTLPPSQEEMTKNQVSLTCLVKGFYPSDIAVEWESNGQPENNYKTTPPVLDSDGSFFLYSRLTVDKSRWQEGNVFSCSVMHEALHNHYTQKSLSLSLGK
light: EIVLTQSPDFLSVTPKEKVTITCRASQSIGTTIHWYQQKPDQSPKLLIKYASQSFSGVPSRFSGSGSGTDFTLTINSVEAEDAATYYCQQSNSWPLTFGAGTKLEIKRTVAAPSVFIFPPSDEQLKSGTASVVCLLNNFYPREAKVQWKVDNALQSGNSQESVTEQDSKDSTYSLSSTLTLSKADYEKHKVYACEVTHQGLSSPVTKSFNRGEC
notes: expressed with the common light chain Anti-PDL1-LC; also called tetravalent bispecific antibody against PD-1 and PD-L1
B2: 609-Fab-PDL1-IgG4 (bispecific antibody)
heavy: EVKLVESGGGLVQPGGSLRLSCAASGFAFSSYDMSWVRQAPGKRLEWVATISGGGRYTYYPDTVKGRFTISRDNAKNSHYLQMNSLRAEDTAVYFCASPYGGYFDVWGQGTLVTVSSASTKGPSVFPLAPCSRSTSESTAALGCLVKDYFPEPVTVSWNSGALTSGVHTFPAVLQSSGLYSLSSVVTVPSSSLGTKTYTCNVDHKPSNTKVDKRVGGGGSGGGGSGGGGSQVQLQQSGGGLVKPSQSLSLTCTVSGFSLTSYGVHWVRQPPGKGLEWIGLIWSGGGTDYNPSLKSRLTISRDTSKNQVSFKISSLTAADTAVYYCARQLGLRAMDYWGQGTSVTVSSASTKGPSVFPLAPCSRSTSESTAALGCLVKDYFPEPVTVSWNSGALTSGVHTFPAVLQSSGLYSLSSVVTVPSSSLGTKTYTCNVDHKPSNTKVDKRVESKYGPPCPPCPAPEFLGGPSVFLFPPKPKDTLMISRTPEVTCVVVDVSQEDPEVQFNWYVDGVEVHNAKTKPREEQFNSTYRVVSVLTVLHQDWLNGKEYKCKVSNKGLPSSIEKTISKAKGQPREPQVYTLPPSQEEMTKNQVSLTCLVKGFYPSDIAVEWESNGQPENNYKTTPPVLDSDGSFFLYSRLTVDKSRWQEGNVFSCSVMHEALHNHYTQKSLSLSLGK
light: EIVLTQSPDFLSVTPKEKVTITCRASQSIGTTIHWYQQKPDQSPKLLIKYASQSFSGVPSRFSGSGSGTDFTLTINSVEAEDAATYYCQQSNSWPLTFGAGTKLEIKRTVAAPSVFIFPPSDEQLKSGTASVVCLLNNFYPREAKVQWKVDNALQSGNSQESVTEQDSKDSTYSLSSTLTLSKADYEKHKVYACEVTHQGLSSPVTKSFNRGEC
notes: as for B1
B3: mAb1-25-Hu (609) (antibody, human IgG4 S228P, kappa, V domains shown)
VH: EVKLVESGGGLVQPGGSLRLSCAASGFAFSSYDMSWVRQAPGKRLEWVATISGGGRYTYYPDTVKGRFTISRDNAKNSHYLQMNSLRAEDTAVYFCASPYGGYFDVWGQGTLVTVSS
VL: EIVLTQSPATLSLSPGERATLSCRASQSISNFLHWYQQKPGQAPRLLIKYASQSISGIPARFSGSGSGTDFTLTISSLEPEDFAVYFCQQSNSWPHTFGQGTKVEIKR
notes: Humanized anti-human PD-1 monoclonal antibody, human IgG4 (S228P) / kappa
B4: Anti-PDL1 (antibody, human IgG1, kappa, V domains shown)
VH: QVQLQQSGGGLVKPSQSLSLTCTVSGFSLTSYGVHWVRQPPGKGLEWIGLIWSGGGTDYNPSLKSRLTISRDTSKNQVSFKISSLTAADTAVYYCARQLGLRAMDYWGQGTSVTVSS
VL: EIVLTQSPDFLSVTPKEKVTITCRASQSIGTTIHWYQQKPDQSPKLLIKYASQSFSGVPSRFSGSGSGTDFTLTINSVEAEDAATYYCQQSNSWPLTFGAGTKLEIKR
notes: Humanized from murine M8; human IgG1 / kappa; also called humanized anti-human PD-L1 antibody; Anti-PDL1-HC+Anti-PDL1-LC
B5: 609-HC+Anti-PDL1-LC (antibody, human IgG4 S228P, kappa, V domains shown)
VH: EVKLVESGGGLVQPGGSLRLSCAASGFAFSSYDMSWVRQAPGKRLEWVATISGGGRYTYYPDTVKGRFTISRDNAKNSHYLQMNSLRAEDTAVYFCASPYGGYFDVWGQGTLVTVSS
VL: EIVLTQSPDFLSVTPKEKVTITCRASQSIGTTIHWYQQKPDQSPKLLIKYASQSFSGVPSRFSGSGSGTDFTLTINSVEAEDAATYYCQQSNSWPLTFGAGTKLEIKR
notes: also called hybrid antibody
B6: Anti-PDL1-HC+609-LC (antibody, human IgG1, kappa, V domains shown)
VH: QVQLQQSGGGLVKPSQSLSLTCTVSGFSLTSYGVHWVRQPPGKGLEWIGLIWSGGGTDYNPSLKSRLTISRDTSKNQVSFKISSLTAADTAVYYCARQLGLRAMDYWGQGTSVTVSS
VL: EIVLTQSPATLSLSPGERATLSCRASQSISNFLHWYQQKPGQAPRLLIKYASQSISGIPARFSGSGSGTDFTLTISSLEPEDFAVYFCQQSNSWPHTFGQGTKVEIKR
notes: also called hybrid antibody

Experiments:
PD1-His [1] = molecular target: T1, PD1-His (human, UniProt Q15116 25-170); assay: ELISA, coated PD1-His
T1 construct: extracellular domain; Expressed in HEK293F; also called recombinant protein PD1-His; not shown: polyhistidine tag

PD-L1-His [2] = molecular target: T2, PD-L1-His (human, UniProt Q9NZQ7 19-238); assay: ELISA, coated PD-L1-His
T2 construct: extracellular domain; Expressed in HEK293F; also called recombinant protein PD-L1-His; not shown: polyhistidine tag

PD1-His [3] = molecular target: T1, PD1-His; assay: SPR (Biacore 8K), antibody captured on Protein A/G chip, PD1-His injected
Method: (§1) Herein, the affinity of the above antibodies to PD-1 or PD-L1 was determined by Biacore 8K (GE healthcare). On Biacore 8K, the chip coupled with Protein A/G was used to capture various antibodies, respectively, and then the recombinant protein PD1-His or PD-L1-His was injected to obtain the binding-dissociation curve, which was eluted with 6M guanidine hydrochloride regeneration buffer for next cycle. Data were analyzed using the Biacore 8K Evaluation Software.

PD-L1-His [4] = molecular target: T2, PD-L1-His; assay: SPR (Biacore 8K), antibody captured on Protein A/G chip, PD-L1-His injected
Method: as §1

PD-L1-ECD-hFc [5] = molecular target: T3, PD-L1-ECD-hFc (human, UniProt Q9NZQ7 19-238); assay: ELISA, plate coated with PD-L1-ECD-hFc 10 ng/well, OD450
T3 construct: extracellular domain; also called biotinylated PD-L1-ECD-hFc; not shown: Fc segment of human IgG1
Method: (§2) The plates were blocked with PBST containing 1% BSA. The antibodies to be tested were serially diluted, then transferred to the above plates coated with recombinant proteins, incubated at room temperature for half an hour and then the plates were washed; an appropriately diluted HRP-labeled goat anti-human antibody (Fc-Specific) (purchased from Sisgma) was added, incubated at room temperature for half an hour and then the plates were washed; chromogenic solution with TMB as a substrate was added at 100 μl/well, incubated at room temperature for 1˜5 min; 50 μl of stop solution (2M H₂SO₄) was added to stop the reaction. OD450 values were read with a microplate reader (SpectraMax 190). Graphing and data analysis were performed using GraphPad Prism6, and EC50 values were calculated.

PD1-ECD-hFc [6] = molecular target: T4, PD1-ECD-hFc (human, UniProt Q15116 25-170); assay: ELISA, plate coated with PD1-ECD-hFc 10 ng/well, OD450
T4 construct: extracellular domain; also called Human PD-1-ECD-hFc; human PD1-ECD-hFc; not shown: Fc segment of human IgG1
Method: as §2

PD-L1-ECD-hFc [7] = molecular target: T3, PD-L1-ECD-hFc; assay: ELISA, coated PD-L1-ECD-hFc
Method: as §2

PD-L1-ECD-hFc [8] = molecular target: T3, PD-L1-ECD-hFc; assay: competition ELISA: blocks biotinylated PD-L1-ECD-hFc binding to coated PD1-ECD-hFc
Method: Human PD-1-ECD-hFc was diluted to 2 μg/ml with sodium carbonate buffer (1.59 g Na₂CO₃ and 2.93 g NaHCO₃ dissolved in 1 L of pure water), and added into a 96-well ELISA plate with a multichannel pipette at 100 μl/well, incubated at room temperature for 4 h; washed once with PBST, blocked with PBST containing 1% BSA at 200 μl/well, incubated at room temperature for 2 h; the blocking solution was discarded, the plate was patted dry, and placed at 4° C. for later use. […] OD450 values were read with a microplate reader (SpectraMax 190). Graphing and data analysis were performed using GraphPad Prism6, and IC50 values were calculated.

PD1-His [9] = molecular target: T1, PD1-His; assay: ELISA, plate coated with PD1-His 10 ng/well, OD450
PD1-ECD-hFc [10] = molecular target: T4, PD1-ECD-hFc; assay: ELISA, coated PD1-ECD-hFc
Method: as §2

T1 sequence (Q15116 25-170): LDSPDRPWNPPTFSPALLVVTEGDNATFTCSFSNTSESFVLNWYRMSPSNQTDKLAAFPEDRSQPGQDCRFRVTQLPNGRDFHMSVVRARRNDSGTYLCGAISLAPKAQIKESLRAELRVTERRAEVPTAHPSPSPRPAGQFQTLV
T4 sequence (Q15116 25-170 limits assumed): as the sequence (Q15116 25-170) above
T2 sequence (Q9NZQ7 19-238): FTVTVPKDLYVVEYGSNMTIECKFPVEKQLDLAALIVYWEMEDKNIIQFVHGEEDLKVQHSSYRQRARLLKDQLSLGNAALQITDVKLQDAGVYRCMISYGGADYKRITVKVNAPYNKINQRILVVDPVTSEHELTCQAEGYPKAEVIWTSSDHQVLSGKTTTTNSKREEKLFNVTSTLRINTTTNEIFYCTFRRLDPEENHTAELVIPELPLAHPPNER
T3 sequence (Q9NZQ7 19-238 limits assumed): as the sequence (Q9NZQ7 19-238) above

Binder | EC50 (PD1-His [1]) [nM] | EC50 (PD-L1-His [2]) | Kd (PD1-His [3]) [nM] | koff (PD1-His [3]) [s⁻¹] | kon (PD1-His [3]) [M⁻¹ s⁻¹] | Kd (PD-L1-His [4]) [nM] | koff (PD-L1-His [4]) [s⁻¹] | kon (PD-L1-His [4]) [M⁻¹ s⁻¹] | binding result (PD1-ECD-hFc [6]) | also measured
B1 | 5.31 | 0.14 nM | – | – | – | – | – | – | – | –
B2 | 0.421 | 0.135 nM | 25.7 | 0.00443 | 173000 | 0.608 | 0.00112 | 1.85e+06 | – | –
B3 | – | – | – | – | – | – | – | – | – | binding result (PD-L1-ECD-hFc [5]): no binding (tested: log10(nM) about 2.1 (about 130 nM))
B4 | – | 0.12 nM and 0.102 nM | – | – | – | 0.843 | 0.00138 | 1.63e+06 | no binding (tested: log10(nM) about 2.1 (about 130 nM)) | EC50 (PD-L1-ECD-hFc [7]): 0.125 nM; IC50 (PD-L1-ECD-hFc [8]): 1.37 nM; binding result (PD1-His [9]): no binding (tested: log10(nM) about 2.4 (about 250 nM))
B5 | 0.382 | – | 34.9 | 0.00439 | 126000 | – | – | – | – | EC50 (PD1-ECD-hFc [10]): 0.243 nM
B6 | – | – | – | – | – | – | – | – | no binding (tested: log10(nM) about 2.1 (about 130 nM)) | –
